{"source": "paper PMC10651883", "about": "“M. mazei glutamine synthetase and glutamine synthetase-GlnK1 structures reveal enzyme regulation by oligomer modulation” (Nature Communications, 2023)", "molecules": {"B1": {"name": "Bacillus subtilis glutamine synthetase (enzyme)", "chain": "AKYTREDIEKLVKEENVKYIRLQFTDILGTIKNVEIPVSQLGKALDNKVMFDGSSIEGFVRIEESDMYLYPDLNTFVIFPWTAEKGKVARFICDIYNPDGTPFEGDPRNNLKRILKEMEDLGFSDFNLGPEPEFFLFKLDEKGEPTLELNDKGGYFDLAPTDLGENCRRDIVLELEEMGFEIEASHHEVAPGQHEIDFKYAGAVRSCDDIQTFKLVVKTIARKHGLHATFMPKPLFGVNGSGMHCNLSLFKNGVNAFFDENADLQLSETAKHFIAGIVKHATSFTAVTNPTVNSYKRLVPGYEAPCYVAWSAQNRSPLIRIPASRGISTRVEVRSVDPAANPYLALSVLLAAGLDGIKNKLEAPAPIDRNIYVMSKEERMENGIVDLPATLAEALEEFKSNEVMVKALGEHLFEHFIEAKEIEWDMFRTQVHPWEREQYMSQY", "notes": "glutamine synthetase (GS) of Bacillus subtilis; also called Bs GS; apo Bs GS"}, "B2": {"name": "Methanosarcina mazei GlnK1 (natural protein)", "chain": "MVAMKYVIAMIRPERLDAVKRELQKIEVSRLTVSSVSGYGAQKGYMEIYRAMEYDANLLEKIKIEIAVNDEFLEPTIEAIKTGAKGSDGYVGSGKIFVLPLENVIRIRTNETGPEAI", "notes": "GlnK1, PII family nitrogen regulatory protein of Methanosarcina mazei; gene bought from Genscript, in pET15b; Trimer in the crystal structure of the complex with GS; also called Mm GlnK1; WT GlnK1; source: E. coli C41(DE3), purified (cobalt NTA TALON)"}, "B3": {"name": "Methanosarcina mazei glutamine synthetase (enzyme)", "chain": "MVQMKKCTTKEDVLEAVKERDVKFIRTQFTDTLGIIKSWAIPAEQLEEAFENGVMFDGSSIQGFTRIEESDMKLALDPSTFRILPWRPATGAVARILGDVYLPDGNPFKGDPRYVLKTAIKEAEKMGFSMNVGPELEFFLFKLDANGNPTTELTDQGGYFDFAPLDRAQDVRRDIDYALEHMGFQIEASHHEVAPSQHEIDFRFGDVLCTADNVVTFKYVVKSIAYHKGYYASFMPKPLFGVNGSGMHSNQSLFKDGKNVFYDPDTPTKLSQDAMYYIGGLLKHIREFTAVTNPVVNSYKRLVPGYEAPVYISWSAQNRSSLIRIPATRGNGTRIELRCPDPACNPYLAFALMLRAGLEGIKNKIDPGEPTNVNIFHLSDKEREERGIRSLPADLKEAIDEMKGSKFVKEALGEHVFSHYLCAKEMEWDEYKAVVHPWELSRYLSML", "notes": "glutamine synthetase (GS) of Methanosarcina mazei; gene bought from Genscript, in pET15b; Oligomeric state depends on concentration: dimers at 75 nM, dodecamers and partial oligomers at about 20 uM (1 mg/mL); also called Mm GS; WT Mm GS; source: E. coli C41(DE3), purified (cobalt NTA TALON)"}, "B4": {"name": "Mm GS(R167L-A168G) (enzyme, Methanosarcina mazei)", "chain": "B3 chain with R167L, A168G", "notes": "glutamine synthetase (GS) of Methanosarcina mazei with R167L and A168G; gene bought from Genscript, in pET15b; everywhere else R167L; also called mutant Mm GS; source: E. coli C41(DE3), purified (cobalt NTA TALON)"}}, "key": {"Mm GS": {"target": "T1, Mm GS (Methanosarcina mazei, UniProt Q8PY99)", "T1 construct": "gene glnA1; labile dodecamer (two hexamer rings), active site between two subunits; catalytic residues Asp57, Glu307", "assay": "cryo-EM structure, […] A", "assay_type": "binding", "settings": "formed in situ from ATP; with Met-Sox-P; 5 mM MgCl2, pH 7.5; active site"}, "[1]": {"target": "the molecule itself", "assay": "mass photometry; protein at 75 nM final, 20 mM Tris pH 7.5, 150 mM NaCl, room temperature; Refeyn OneMP; four measurements"}, "[2]": {"target": "the molecule itself", "assay": "crystal structure; Mm GS-GlnK1 complex formed by mixing ~2:1 (excess GlnK1) and SEC; 30% PEG 400, 0.1 M sodium cacodylate pH 6.5, 0.1 M LiSO4"}, "[3]": {"target": "T2, Methanosarcina mazei glutamine synthetase (Methanosarcina mazei), Q8PY99", "T2 chain": "B3 chain", "assay": "fluorescence polarisation; apparent; GS titrated to saturation into 1 nM Fluorescein-12-ATP, then GlnK1 titrated in; 25 mM Tris pH 7.5, 100 mM NaCl, 1 mM MgCl2", "settings": "remark: other sources report otherwise"}, "[4]": {"target": "the molecule itself", "assay": "cryo-EM structure; apo Mm GS at ~20 uM (1.0 mg/mL), 12.5 mM Tris pH 7.5, 5 mM MgCl2, 150 mM NaCl, 2.5% glycerol, 1 mM bME; dodecamer and partial oligomer from one dataset"}, "[5]": {"target": "the molecule itself", "assay": "crystal structure; Mm GS(R167L-A168G), 35% PEG 200, 0.1 M sodium citrate pH 5.5; three subunits in the asymmetric unit, symmetry generates the dodecamer"}}, "note": "Where a chain is given by its changes, count along the chain named. In names and notes the source's numbering stands.", "data": [{"molecule": "Nc1ncnc2c1ncn2[C@@H]1O[C@H](COP(=O)(O)OP(=O)(O)O)[C@@H](O)[C@H]1O", "note": "[ADP]", "values": [{"measurement": "cryo-EM structure, 2.7 A", "setting": "Mm GS", "result": "In the Mm GS TS structure, the ADP is anchored into the active site pocket"}]}, {"molecule": "B1", "values": [{"measurement": "stoichiometry N", "setting": "[1]", "result": 12}]}, {"molecule": "B2", "values": [{"measurement": "stoichiometry N", "setting": "[2]", "result": 3}, {"measurement": "Kd", "setting": "[3]", "result": 6.4, "unit": "µM"}]}, {"molecule": "B3", "values": [{"measurement": "stoichiometry N", "setting": "[1]", "result": 2}, {"measurement": "stoichiometry N", "setting": "[4]", "result": 12}]}, {"molecule": "B4", "values": [{"measurement": "stoichiometry N", "setting": "[5]", "result": 12}]}]}
